From patent publication US20220242939A1 (BIOARCTIC, published 2022) come the findings set out here.

Non-standard residues stand in square brackets, D forms with d. No end group written: not given here. Ahx = NCCCCCC(=O)O

The target in experiment [1] is T1, full-length ApoE in human brain extract from Alzheimer's disease patients (human, UniProt P02649 19-317).
T1 construct: mature; Endogenous protein on Western blot or in solution (IP); also called ApoE full-length protein
The experiment in a line: Western blot of AD brain RIPA 2% SDS extract; hybridoma supernatant as primary antibody. The source says: Selectivity evaluation and human target binding in Alzheimer's disease brain extracts by Western blot analysis: The Western blot analysis described below was used to evaluate selective binding of monoclonal antibodies with affinity for the N-terminal neo-epitope of ApoE fragments […], starting at G200, without binding to ApoE full-length protein, in human brain extracts from an Alzheimer's disease patient. Fresh frozen brain tissue from the Alzheimer's disease patient was homogenized in RIPA 2% SDS extraction buffer, followed by centrifugation at 16000×g for 1 h. The subsequent supernatant was subjected to standard protein concentration determination.
RIPA 2% SDS brain extract containing 80 μg total protein was mixed with 2×Laemmli sample buffer, boiled for 5 min at 95° C. and loaded onto SDS-PAGE gels (Bolt™ 12% Bis-Tris Plus 10 well, Thermo Fisher, cat. no. NW00120BOX). Gels were run for 30-40 min at 180 V, after which proteins were transferred from the gels to nitrocellulose membranes using the Trans-Blot® Turbo™ system (Bio-Rad). Membranes were blocked in Odyssey® blocking buffer for 1 h and incubated over night at room temperature with hybridoma supernatant diluted 1:1 in Odyssey® blocking buffer with 0.1% TWEEN®-20. Membranes were washed and incubated for 1 h at room temperature with the detection antibody anti-mouse-800CW (LI-COR, cat. no. 925-32210) diluted 1:25000 in Odyssey® blocking buffer with 0.1% TWEEN®-20. Membranes were washed and images acquired using Odyssey® FC (LI-COR).

Experiment [2] has as its target T2, G200 N-terminal neo-epitope peptide GQPLQE-Acp-C (SEQ ID NO:50) conjugated to BSA (human, not fully specified (residue 8); printed as GQPLQE-Acp-C; also: C-terminal Cys conjugated to BSA carrier).
T2 construct: also called G200-BSA peptide; G200-peptide
T2 peptide: GQPLQE[Ahx]C
The experiment in a line: direct ELISA, target coated at 1 ug/ml, supernatant in 3-fold dilutions from 1000 ng/ml, OD 450 nm. The protocol: (§1) Selectivity evaluation by direct ELISA: The direct ELISA described below was used to evaluate the binding selectivity of generated monoclonal anti-ApoE antibodies with affinity for the N-terminal neo-epitope of C-terminal ApoE fragments starting at amino acid G200.
(§2) The screening was performed according to standard ELISA protocols. Briefly, 1 μg/ml solutions of N-terminal neo-epitope peptide (SEQ ID NO:50) conjugated to BSA, the recombinant C-terminal ApoE fragment G200-HIS (SEQ ID NO:48) and recombinant full-length ApoE4 (SEQ ID NO:45; Abcam; cat. no. ab50243) were prepared by dilution in PBS. 50 μl/well were added to an ELISA half-area 96 well microtiter plate. Then, the plate was sealed with adhesive sealer and incubated over night at 4° C. The plates were blocked with 150 μl/well of protein-free blocking solution (Pierce) for 1 h at room temperature with shake (600-900 rpm). The plates were washed four times with washing buffer containing 0.28 mM NaH₂PO₄, 2.5 mM Na₂HPO₄, 150 mM NaCl, 0.1% TWEEN®-20 and 0.0075% Kathon CG. Antibodies of interest were serially diluted 3-fold with a starting dilution at 1 μg/ml (mixed 1:1 with dilution buffer: PBS with 0.1% BSA and 0.05% TWEEN®-20) and incubated for 2 h at room temperature. The plates were washed four times as before. […] After another wash (as above), 50 μl/well of K-Blue® aqueous substrate (Neogen) were added, and the reaction was stopped after 5-15 min with 50 μl/well of 0.5 M […]. The optical density at 450 nm was read using an ELISA reader (Tecan). The optical density was plotted against the antibody concentration to generate concentration-response curves (FIG. 14).

In experiment [3] the target is T3, recombinant full-length ApoE4 (aa 1-299; SEQ ID NO:45; Abcam cat. no. ab50243) (human, UniProt P02649 19-317).
T3 construct: Bought protein; also called recombinant ApoE4 full-length protein
T3 sequence (P02649 19-317 C130R limits assumed): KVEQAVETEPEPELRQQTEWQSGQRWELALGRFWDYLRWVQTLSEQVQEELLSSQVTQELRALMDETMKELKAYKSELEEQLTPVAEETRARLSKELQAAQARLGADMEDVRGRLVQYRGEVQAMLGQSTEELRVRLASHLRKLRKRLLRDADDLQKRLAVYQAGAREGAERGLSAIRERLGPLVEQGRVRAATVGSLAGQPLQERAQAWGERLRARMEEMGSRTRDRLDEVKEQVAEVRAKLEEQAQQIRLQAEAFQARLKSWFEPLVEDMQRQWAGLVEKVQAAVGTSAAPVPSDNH
The description is as above. The protocol:
as §1, §2

Experiment [4] concerns the target T4, recombinant C-terminal ApoE fragment G200-HIS (ApoE-G200-H299-10xHIS) (human, UniProt P02649 218-317).
T4 construct: also called G200-HIS fragment
Described as above. The protocol: as §1, §2

Experiment [5] concerns the target T5, L198 N-terminal neo-epitope peptide LAGQPLQE-Acp-C (SEQ ID NO:54) conjugated to BSA (human, not fully specified (residue 10); printed as LAGQPLQE-Acp-C; also: C-terminal Cys conjugated to BSA carrier).
T5 construct: BSA carrier
T5 peptide: LAGQPLQE[Ahx]C
The experiment in a line: direct ELISA after limiting dilution.

The target in experiment [6] is T6, recombinant C-terminal ApoE fragment L198-HIS (ApoE-L198-H299-10xHIS) (human, UniProt P02649 216-317).
T6 construct: also called L198-HIS fragment
T6 sequence (P02649 other isoform, or with tags, fused parts or gaps limits assumed): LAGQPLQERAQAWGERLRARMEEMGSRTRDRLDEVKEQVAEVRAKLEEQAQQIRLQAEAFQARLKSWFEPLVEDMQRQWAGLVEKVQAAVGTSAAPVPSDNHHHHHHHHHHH
The experiment can be described thus: direct ELISA, L198-HIS coated at 0.1 µM. The protocol: (§3) Selectivity evaluation of purified monoclonal antibodies by direct ELISA: The direct ELISA described below was used to evaluate the binding selectivity of the purified monoclonal antibodies produced in Example 14.
(§4) The screening was performed according to standard ELISA protocols. Briefly, 1 μg/ml solutions of BSA-conjugated neo-epitope peptides and negative control peptide, and 0.1 μM recombinant C-terminal ApoE fragment and full-length ApoE (Abcam, cat. no. ab50243) were prepared by dilution in PBS. 50 μl/well were added to an ELISA half-area 96 well microtiter plate, and the plate was sealed with adhesive sealer and incubated over night at 4° C. After discarding the solution, the plates were blocked with 150 μl/well of protein-free blocking solution (Pierce) for 1 h at room temperature with shake (600-900 rpm). The plates were washed four times with washing buffer containing 0.28 mM NaH₂PO₄, 2.5 mM Na₂HPO₄, 150 mM NaCl, 0.1% TWEEN®-20 and 0.0075% Kathon CG. Purified monoclonal antibodies of interest were 3-fold serially diluted with a starting dilution at 3 μg/ml (mixed 1:2 with dilution buffer (PBS with 0.1% BSA and 0.05% TWEEN®-20)). An anti-ApoE C-terminal antibody was used as a reference antibody (ApoE E-8 mouse monoclonal, Santa Cruz Biotechnology, cat. no. sc-393302). 50 μl/well were added into the ELISA plates and incubated for 2 h at room temperature with shake (600-900 rpm). The plates were washed four times as described previously. […] After another wash (as described previously), 50 μl/well of K-Blue® aqueous substrate (Neogen) were added, and the reaction was stopped after 5-15 min with 50 μl/well of 0.5 M […]. The optical density at 450 nm was read using an ELISA reader (Tecan).

In experiment [7] the target is T7, L198 N-terminal neo-epitope peptide LAGQPL-Acp-C (SEQ ID NO:52) conjugated to BSA (human, not fully specified (residue 8); printed as LAGQPL-Acp-C; also: C-terminal Cys conjugated to BSA carrier).
T7 construct: BSA carrier; also called L198-BSA peptide
T7 peptide: LAGQPL[Ahx]C
The experiment in a line: direct ELISA, L198-BSA peptide coated at 1 µg/ml. The protocol: as §3, §4

Experiment [8] has as its target T1, full-length ApoE in human brain extract …. The experiment in a line: Western blot of AD brain RIPA 2% SDS extract; monoclonal antibody at 2 ug/ml as primary antibody.
The target in experiment [9] is T2, G200 N-terminal neo-epitope peptide …. The experiment in a line: direct ELISA; proteins coated at 0.1 uM, BSA peptides at 1 ug/ml; antibody in 3-fold dilutions from 3000 ng/ml; blank reduced OD 450 nm. The protocol: as §3, §4
In experiment [10] the target is T3, recombinant full-length ApoE4 (aa …). The experiment is described as above. The protocol: as §3, §4

T1 sequence (P02649 19-317): as the sequence (P02649 19-317 C130R limits assumed) above, with R112C counted along it
T4 sequence (P02649 other isoform, or with tags, fused parts or gaps limits assumed): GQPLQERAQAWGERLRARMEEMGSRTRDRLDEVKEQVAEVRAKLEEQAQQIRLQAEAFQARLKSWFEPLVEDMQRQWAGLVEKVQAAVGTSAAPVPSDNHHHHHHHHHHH

B1: 4E6, hybridoma monoclonal antibody (unpurified supernatant) (antibody, V domains shown)
VH: EVQLVESGGDLVKPGGSLKLSCAASGFTFSSYAMSWVRQSPEKRLEWVAEISGSGSRDHYTDSVTGRFTVSRDNAKNTLYLEMSSLRSEDTAIYYCARQLTGTDYYGTDYWGQGTSVTVSS
VL: DVLMTQIPLSLPVSLGDQASISCRSSQSIVYSNGNTYLEWYLQRPGQSPKLLIYKVSNRFSGVPDRFSGSGSGTDFTLKISRVEAEDLGVYYCFQGSHLPYTFGGGTKLEIK
Regarding B1, the values for the binding result in [1] and in [3] were “no binding (tested: supernatant diluted 1:1 (text))” and “no binding (tested: 1000 ng/ml)”, respectively. The “EC50 (read off the curve)” value in experiment [2] and in [4] was about 10 ng/mL in each case.

B2: 7B10, hybridoma monoclonal antibody (unpurified supernatant) (antibody, mouse IgG1, V domains shown)
VH: AVQLVESGGGLVKPGRSLKLSCAASGFTFSSYAMSWVRQFPDKRLDWVAEISSGGGSTNYLDTVTGRFTISRDNAKNTLYLEMNSLRSEDTAMYYCARQLVGTDYYGTDYWGQGTSVTVSS
VL: DVLMTQTPLSLPVSLGDQASISCRSSQNIVYSNGNTYLEWYLQKPGQSPKLLIYKVSNRFSGVPDRFSGSGSGTDFTLKISRVEAEDLGVYYCFQGSHVPYTFGGGTKLEIK
notes: also called 7610
On to B2, for which the binding result was “no binding (tested: supernatant diluted 1:1 (text))” in [1] and “no binding (tested: 1000 ng/ml)” in experiment [3]. The “EC50 (read off the curve)” value in experiment [2] is about 20 ng/mL; in experiment [4] it was about 8 ng/mL.

B3: 15F8, monoclonal anti-L198 antibody (antibody, IgG2c, V domains shown)
VH: EVKLEESGGGLVHPGGSMKLSCVGSGFTFSNYWMNWVRQSPEKGLEWVAQIKLRSDNYATHYAESVKGKFTISRDDAKSSVYLQMDNLRAEDTGIYYCSHHYLDSGGYFDVWGTGTSVTVSS
VL: DIVMTQSQKFMSTSVGDRVSVTCKASQNVGINVAWYQDKPGQSPKGLILSASYRYSGVPDRFTGSGSGTDFTLTISNVQSEDLAEYFCQQYNSYPYTFGGGTKLEIK
As to B3, the binding result is reported as “binds” in [5], “no binding (tested: 2 ug/ml (text))” in [8], “no binding (tested: 3000 ng/ml)” in [9] and “no binding (tested: 3000 ng/ml)” in experiment [10]. The values for the EC50 in [6] and in [7] were 15 ng/mL and 24.7 ng/mL, respectively.

B4: 12B1, monoclonal anti-L198 antibody (antibody, IgG2c, V domains shown)
VH: EVKLEESGGGLVQPGGSMKLSCVASGITFSKYWMNWVRQCPEKGLEWVAQIRLRSDNYATHYAESVKGRFTISRDDSKSSVYLQMNTLRAEDTGIYYCTHHYYGSSGYVDVWGTGTTVTVSS
VL: DIVMTQSQKFMSTSVGDRVSVTCKASQNVGTNVAWYQQKPGQCPKGMILSASQRYSGVPDRFTGSGFGTEFTLTISNVQSEDLAEYFCQQYNSYPYTFGGGTKLERK
With B4, the concentration giving a half-maximal response (EC50) in experiment [6] amounted to 8.7 ng/mL; in experiment [7], 15.2 ng/mL.

B5: 15H11, monoclonal anti-L198 antibody (antibody, IgG1, V domains shown)
VH: EVKLEESGGGLVQPGGAMKLSCVASGITFSNYWMNWVRQCPEKGLEWVAQIRLKSDNYATHYAESVKGRFTISRDDSKSSVYLQMNTLRAEDTGIYYCTHHYYGSSGYVDVWGTGTTVTVSS
VL: DIVMTQSQKFMSTSVGDRVSVTCKASQNVGNNVAWYQKKPGQCPKGMILSASQRYSGVPDRFTGSGFGTEFTLIISNVQSEDLAEYFCHQYNSYPYTFGGGTKLERK
With B5, the concentration giving a half-maximal response (EC50) stood at 3.6 ng/mL in [6] and 3.2 ng/mL in experiment [7].
